Measured values from the nanobody polyreactivity screen of Harvey et al. (2022).

Assay: yeast display, Sf9 membrane polyspecificity reagent, FACS + sequencing; frameworks hold sequencing errors
How it was run: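 Synthetic nanobody libraries on Saccharomyces cerevisiae BJ5465 were galactose-induced for 36–48 hours, stained 1 hour at 4 °C with 10% biotinylated, detergent-solubilized Sf9 membrane reagent and enriched on streptavidin microbeads. FACS then separated cells into low and high (top ~1%) gates by anti-HA (expression) and streptavidin (reagent binding) fluorescence. Genes were colony-PCR amplified, MiSeq 2 × 250 sequenced and CDR-length filtered. A clone's polyreactivity label is that of its gate of origin.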

Sequence | polyreactivity (PSR sort gate)
QVQLVESGGGLVQAGGSLRLSCAASGRIFWNYAMGWYSQAPGKERELVASINWSGGSTYYADSVKGRFTISRDNAKNTVYLQMNSLKPEDTAVYYCNKDGRVYLDHDYWGQGTQVTVSS | low polyreactivity
QVQLVESGGGLVQAGGSLRLSCAASGRIFWPYAMGWYRQAPGKERELVAVITSGTTTYYADSVKGRFTISRDNAKNTVYLKMNSLKPEDTAVYYCNIFSRARRYFEYDYWGQGTQVTVSS | low polyreactivity
QVQLVESGGGLVQAGGSLRLSCAASGRIFWPYTMGGYRQAPGKETELVAVITYSGGSTYYADSVKGRFTISRDNAKNTVYLQMNSLIPEDTEVYYCNAGIRFYLHAHGYYWGQGTQVTVSS | high polyreactivity
QVQLVESGGGLVQAGGSLRLSCAASGRIFWRNAMGWYRQAPGKERELVAAISSGGSTYYADSVKGRFTISRDNAKNTVYFQMNSLKPEDTAVYYCAARSSWRGVRYDHFERDYWGQGTQVTVSS | high polyreactivity
QVQLVESGGGLVQAGGSLRLSCAASGRIFWRNAMVWYRQAPGKERELVAAISGSGGSTSYADSVKGRFTISRDNAKNTVYLQMNSLKPEDTAVYYCAAKYYYNWHRQGYDYWGQGTQVTVSS | high polyreactivity
QVQLVESGGGLVQAGGSLRLSCAASGRIFWRYAMGWYRQAPGKERELVAAISSGGSTTYADSVKGRFTISRDNAKNTVYLQMNSLKPEDTAVYYCNARQYTRPYAFDYWGQGTQVTVSS | low polyreactivity
QVQLVESGGGLVQAGGSLRLSCAASGRIFWRYAMGWYRQAPGKERELVAGISASGGSTFYADSVKGRFTISRDNAKNTVYLQMNSLKPEDTAVYYCAAVSRYIWYSARESYYWGQGTQVTVSS | high polyreactivity
QVQLVESGGGLVQAGGSLRLSCAASGRIFWSYAMGWYRQAPGKEREFVAVITWSGGSTYYADSVKGRFTISRDNAKNTVYLQMNSLKPEDTAVYYCADGQWWYQVRFDYWGQGTQVTVSS | low polyreactivity
QVQLVESGGGLVQAGGSLRLSCAASGRIFWSYAMGWYRQAPGKERELVAAINSGGSTNYADSVKGRFTISRDNAKNTVYLQMNSLKPEDTAVYYCAAGFYYVYVWLGEYWVQGTQVTVSS | low polyreactivity
QVQLVESGGGLVQAGGSLRLSCAASGRIFWTNAMGWYRQAPGKERELVAAISYNGASTFYADSVKGRFTISRDNAKNTVYLQMNSLKPEDTAVYYCNAYSSRYRYNYWGQGTQVTVSS | high polyreactivity
QVQLVESGGGLVQAGGSLRLSCAASGRIFWTYAMGWYRQAPGKERELVAAINSSGGTTYYADSVKGRFTISRDNAKNTVYLQMNSLKPEDTAVYYCSVRGRYYYRRPQISYDYGGQGTQVTVSS | low polyreactivity
QVQLVESGGGLVQAGGSLRLSCAASGRIFWTYAMGWYRQAPGKERELVASITWSGGSTYYADSVKGRFTISRDNAKNTVYLQMNSLKPEDTAVYYCAADRHTYWYDYWGQGTQVTVSS | low polyreactivity
QVQLVESGGGLVQAGGSLRLSCAASGRIFWVNVMGWYRQGPGKERELVAAITRGASTYADSVKGRFTISRDNAKNTVYLQLNSLKPEDTAVYYCAADSKRRSIRYDYWGQGTQVTVSS | high polyreactivity
QVQLVESGGGLVQAGGSLRLSCAASGRIFWVYAMGWYRQAPGKERELVAAISLSGGRTYYADSVKGRFTISRDNAKNTVYLEMNSLKPEDTAVYYCNAVYPKRGGGRIVDYWGQGTQVTVSS | high polyreactivity
QVQLVESGGGLVQAGGSLRLSCAASGRIFWWYAMGWYRQAPGKERELVAVIDDSGGITYYADSVKGRFTISRDNAKNTVYLQRNSLKPEDTAVYYCANYYWGQGTQVTVSS | low polyreactivity
QVQLVESGGGLVQAGGSLRLSCAASGRIFWWYTMGWSRQAPGKERELVAAISGSGGSTYYADSVKGRFTISRDNAKNTVYLQMNSLKPEDTAVYYCAAYHRRRATPIHSGEYGYWGQGTQVTVSS | high polyreactivity
QVQLVESGGGLVQAGGSLRLSCAASGRIFWYNAMGWYRQAPGKERELVAVITSGTSTYYADSVKGRFTISRDNAKNTVYLQMNSLKPEDTAVYYCAARYLSRYSERHYYYWGQGTQVTVSS | high polyreactivity
